One test deals with T1, CrFBPase (Chlamydomonas reinhardtii, UniProt A8IKQ0).
T1 construct: gene CHLRE_12g510650v5; recombinant, N-terminal poly-histidine tag, pET plasmid, E. coli BL21(DE3), Ni-NTA purified
T1 sequence (A8IKQ0 29-415): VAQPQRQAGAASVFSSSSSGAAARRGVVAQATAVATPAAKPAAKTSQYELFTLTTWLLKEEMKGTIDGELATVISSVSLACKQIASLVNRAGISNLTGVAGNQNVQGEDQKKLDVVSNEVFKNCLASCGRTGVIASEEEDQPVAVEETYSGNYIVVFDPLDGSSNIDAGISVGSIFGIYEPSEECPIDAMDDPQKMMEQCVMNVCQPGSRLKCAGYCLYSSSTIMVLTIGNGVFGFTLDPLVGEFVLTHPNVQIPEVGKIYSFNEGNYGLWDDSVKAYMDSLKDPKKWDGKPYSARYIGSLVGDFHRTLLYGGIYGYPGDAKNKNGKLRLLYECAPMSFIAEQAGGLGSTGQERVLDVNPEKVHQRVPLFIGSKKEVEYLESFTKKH
The experiment in a line: coupled spectrophotometric assay of FBP hydrolysis (NADP+ reduction at […] nm). In kind it is biochemical. As to conditions: 0.6 mM FBP, 10 mM MgCl2, 30 mM Tris pH 7.9, 20 °C; FBPase pre-incubated with 1 mM DTT, with or without 50 µM thioredoxin.

Test [1] has as its target Chlamydomonas reinhardtii fructose-1,6-bisphosphatase (CrFBPase) (Chlamydomonas reinhardtii).

In the case of `O=P(O)(O)OC[C@H]1OC(O)(COP(=O)(O)O)[C@@H](O)[C@@H]1O` (stereo partly shown) [FBP], the “coupled spectrophotometric assay of FBP hydrolysis (NADP+ reduction at 340 nm)” value at CrFBPase is “The activity of FBPase was determined in the direction of FBP hydrolysis”. In the case of “Chlamydomonas reinhardtii thioredoxin f2 (CrTRXf2) (enzyme)”, in test [1], the FBPase activity (coupled spectrophotometric assay, NADP+ reduction at 340 nm, initial velocity) after 5 min pre-incubation with 1 mM DTT and 50 µM TRXf2, 20°C, n=4 is 106 ΔAbs/min; the fold increase of FBPase activity after pre-incubation with 1 mM DTT and 50 µM TRXf2 was 6 fold. Consider “TRXχ1 (chimera 1; TRXh1-K49,K69,K70,K78,K99) (from UniProt P80028 1-113) (enzyme)”, for which, in test [1], the FBPase activity (coupled spectrophotometric assay, NADP+ reduction at 340 nm, initial velocity) after 5 min pre-incubation with 1 mM DTT and 50 µM TRXχ1, 20°C, n=4 was 172 ΔAbs/min; the fold increase of FBPase activity after pre-incubation with 1 mM DTT and 50 µM TRXχ1 is 9.8 fold.

B1: Chlamydomonas reinhardtii thioredoxin h1 (CrTRXh1) (enzyme)
chain: MGGSVIVIDSKAAWDAQLAKGKEEHKPIVVDFTATWCGPCKMIAPLFETLSNDYAGKVIFLKVDVDAVAAVAEAAGITAMPTFHVYKDGVKADDLVGASQDKLKALVAKHAAA
B1: in test [1], the FBPase activity (coupled spectrophotometric assay, NADP+ reduction at 340 nm, initial velocity) after 5 min pre-incubation with 1 mM DTT and 50 µM TRXh1, 20°C, n=4 is 59 ΔAbs/min; the fold increase of FBPase activity after pre-incubation with 1 mM DTT and 50 µM TRXh1 was 3.4 fold.

These data come from paper PMC11922929, “Functional recoding of Chlamydomonas reinhardtii thioredoxin type-h into photosynthetic type-f by switching selectivity determinants” (Frontiers in Plant Science, 2025).
